System: T1, Nc1ncnc2c1ncn2[C@@H]1O[C@H](COP(=O)(O)OP(=O)(O)OP(=O)(O)O)[C@@H](O)[C@H]1O
T1 construct: codon-optimised synthetic gene in pET-23b (NdeI/XhoI), C-terminal His6 tag kept, expressed in E. coli BL21(DE3), heat-treated at 60 °C, HisTrap; approx. 27 kDa by SDS-PAGE
Assay: purified protein
Assay type: biochemical, Thermus scotoductus
Conditions: ssRNA oligonucleotide (5'-R20-FAM-3') as co-substrate, 10 mM MgCl2, pH 8.0, 60 °C, ATP 0.1-50 µM

Substance Ts-Clp1 (Thermus scotoductus SA-01) has a Km of 2.5 µM.
